Where a chain is given by its changes, count along the chain named.
B1: C893 (antibody, V domains shown)
VH: EVQLVQSGAEVKKPGESLKISCKGSGYYFTRQWIGWVRQMPGKGLEWMGIIYPGDSDTRYSPSFQGQVTISADKSISTAYLQWSSLKASDTAMYYCARGGWDPAEYSSSGGGGLDAFDIWGQGTMVTVSS
VL: EIVLTQSPATLSLSPGERATLSCRASQSVSSYLAWYQQRPGRAPRLLIYDASNRATGIPGRFSGSGSGTDFSLTISSLEPEDFAVYYCQQRSSWPLTFGQGTRLEIK
notes: IgG; V domains only
B2: C889 (antibody, V domains shown)
VH: EVQLVESGGGLVQPGGSLRLSCAVSGFTVSSNYMTWVRQAPGKGLEWVSLIYSGTSAFYADSVKGRFTISRDNSKNTLYLQMSSLRVNDTAIYYCARDLRKDDGYSYGAFDYWGQGTLVTVSS
VL: QSALTQPASVSGSPGQSITISCSGTSSDVGAHNYVSWYQQYPGKAPKLMIFDVTDRPSGVSNRFSGSKSGNTASLTISGLQAEDEADYYCTSYTTNRSWVFGGGTKVTVL
notes: IgG; V domains only
B3: C959 (antibody, V domains shown)
VH: QVQLQESGPGLVKPSETLSLNCNVSGGSISNYYWSWIRQPPGKGLEWIGFISYSGSTDYNPSLKSRVIISIDTSKKHFSLNLSSVTAADTAVYFCARHYDILTALSWFDPWGQGTLVTVSS
VL: QSVLTQPPSVSAAPGQTVTISCSGSSSNIRNNFVSWYQQFPGTAPKLLIYDNNKRPSGIPDRFSGSKSGTSATLGITGLQTGDEADYYCGTWDSSPSACWVFGAGTKLTV
notes: IgG; V domains only
B4: C952 (antibody, V domains shown)
VH: EVQLVQSGAEVKKPGESLTISCKDSGNSFTIYWIGWVRQMPGKGLEWMGMIYPGDSGTRYSPSFEGQVTISADESINTAYLQWRSLKASDTAMYYCVRGIAVDWYFDLWGRGTLVTVSS
VL: QSVLTQPPSVSGAPGQRVTISCTGSSSNIGAGFDVHWYQQLPGTAPKLLIYGNNNRPSGVPDRFSGSKSATSASLAITGLQAEDEADYYCQSSDSSLSGLYVFGTGTNVIV
notes: IgG; V domains only
B5: C902 (antibody, V domains shown)
VH: EVQLVQSGAEVKKPGESLRISCKGSGYSFHTYWIHWVRQMPGKGLEWMGKIDPSDSYTNYSPSFQGHVTFSADRSISTAYLQWSSLKASDTATYYCARLSWSPPTRTTDEKNWFDPWGQGTLVTVSS
VL: DIQLTQSPSFLAASAGDRVTITCRASQGISSYLAWYQQKPGKAPKVLIYAASTLQSGVPSRFSGSGSGTEFTLTISSLQPEDCATYYCQQFNSDPLTFGGGTKVEIK
notes: IgG; V domains only
B6: C878 (antibody, V domains shown)
VH: EVQLVESGGGLVQPGGSLRLSCSVSGFTFSNFAMHWVRQAPGKGLEFVSGVSSDGDITDYADSVKGRFTISRDNSKNTLYLQMSSLRPEDTAVYYCVKDKEHSTMVTIFDFWGQGTLVTVSS
VL: DIQMTQSPSSLSASVGDRVTITCRASQSISSFLNWYQQKPGKAPKLLIYAASSLQSGVPSRFSGRGSGADFTLTITSLQPEDFATYFCQQSYSSHLTFGPGTKVDIK
notes: IgG; V domains only
B7: C899 (antibody, V domains shown)
VH: EVQLVESGGGLVKPGGSLRLSCAASGFTFSNAWMSWVRQAPGKGLEWVGRIKSKTDAETTDYAAPVRGRFTISRDNSKNTLYLEMNSLKTEDTAVYYCTTDADYSDSSGYYVTYYFEYWGQGSLVTVSS
VL: QSALTQPRSVSGSPGQSVTISCTGSNSDVGGYNYVSWYQQHPGKAPKLVIYDVSLRPSGVPDRFSGSKSGITASLTISGLQPEDEAHYYCCSFAGTYTPWVFGGGTRLTVL
notes: IgG; V domains only
B8: C901 (antibody, V domains shown)
VH: QVQLVESGGGVVQPGRSLRIACGASGFTFSTYDMHWVRQAPVKGLEWVAVISRDGSGKFYADSVKGRFTISRDNSKKTLYLQMDSLRPEDTAMYYCARDFESRTWDPPKYYYALDVWGQGTTVTVSS
VL: DIQMTQSPSSLSASVGDRVTITCRASQSISTYLNWYQQKPGKAPSLLIYAASSLYSGVPSRFSGSGSGTDFSLTISSLQPEDFATYYCQQTYTTPTWTFGQGTKVEIK
notes: IgG; V domains only
B9: C890 (antibody, V domains shown)
VH: QVQLVQSGAEVKKPGSSVKASCKASGGTFSTYTISWVRQAPGHGLEWMGRIIPIFGTTKYAQKFQGRVTITADESTTTAYLELSSLRSEDTAVYYCTINTQWDLVPRWGQGTLVTVSS
VL: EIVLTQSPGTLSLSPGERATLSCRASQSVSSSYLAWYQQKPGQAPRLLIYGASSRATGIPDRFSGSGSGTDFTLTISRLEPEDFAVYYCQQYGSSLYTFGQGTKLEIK
notes: IgG; V domains only
B10: C891 (antibody, V domains shown)
VH: EVQLVESGGGLVKPGGSLRLSCAVSGFTFSNVWMSWVRQAPGKGLEWVGRIKSKTDGGTTDYAAPVKGRFTISRDDSKNTLYLQMNSLKTEDTAVYYCTSQLWLRGPGDYWGQGTLVTVSS
VL: NFMLTQPHSVSESPGKTVTISCTGSSGSIASNYVQWYQQRPGSAPTTVIYEDNQRPSGVPDRFSGSIDSSSNSASLTISGLKTEDEADYYCQSYDSSLNWVFGGGTKLTVL
notes: IgG; V domains only
B11: C960 (antibody, V domains shown)
VH: QVQLVESGGGVVQPGRSLTLSCTASGFTFNRFAMFWVRQAPGKGLEWVAVISFDGSYEHYAESVKGRFAIFRDNPKNTLYLQMNSLRAEDTAVYYCAKSPINYCANGVCYPDSWGQGTLVTVSS
VL: B10 VL with S31N, Y50F, N53T, T77N, T83P, Y94F, S96V, S97N, L98S, N99R
notes: IgG; V domains only
B12: C892 (antibody, V domains shown)
VH: EVQLVESGGGLVKPGGSLKVSCTASGFTFTDAWMSWVRQAPGKGLEWVGRIKSRAYGGTTDYGAPVQGRFTISRDDSINTLYLQMNSLTAEDTAVYYCTSQLWLRGPGDYWGQGTLVTVSS
VL: B10 VL with Q35H, S43G, S69I, A87G, S97G, L98V
notes: IgG; V domains only
B13: C896 (antibody, V domains shown)
VH: QVQLVESGGGVVQPGRSLKLSCAASGFTFKTYGMHWVRQAPGKGLEWVAVISYDGTNDYYADSVKGRFTVSRDNSKNTLYLQMNSPRTEDTAVYYCAKAGGPYYYDTSGSFWYFDYWGQGTLVTVSS
VL: DIQMTQSPSSLSASVGDRVTITCRASQTISSYLNWYQQKSGKAPELLVYDASNLESGVPSRFSGSGSGTDFTLTISSLQPEDFATYYCQQSYSFGPGTKVDIK
notes: IgG; V domains only
B14: C954 (antibody, V domains shown)
VH: QVQLVQSGAEVKKPGSSVKVSCKASGDTFTNYAFSWMRQAPGQGLEWMGRIIPILGIVKYSQKFQDRVRISADKSTSTAYMDLSSLRSEDTAMYYCARDSEFSTSWFSRGYHGMDVWGQGTTVTVSS
VL: DIVMTQSPLSLPVTPGEPASISCRSSQSLLHGDGYNYLDWYLQKPGQSPHLLIYLGSNRTSGVSDRFSGSGSGTDFTLKISRVEAEDVGVYYCMQALQTPPTFGGGTKVEIK
notes: IgG; V domains only
B15: C986 (antibody, V domains shown)
VH: EVQLVQSGAEVKKPGETLKISCKGSGDSFSNYWIGWVRQSPGKGLEWMAIVYPGDSDARYSPSFQGQVTISADKSVTTAYLKWSSLKASDTAIYYCVRGLPVDWYFDLWGRGTLVTVSS
VL: QSVLTQPPSVSGAPEQRVTISCTGSSSNIGAGHDVHWYQQLPGTAPKLLIYNNNNRPSGVPDRFSGSKSGASASLAISGLQAEDEAEYYCQSYDKSLSVLYVLGTGTKVTV
notes: IgG; V domains only
B16: C898 (antibody, V domains shown)
VH: QVQLVQSGAEVKKPGSSVKVSCKASGGPFSSYAFTWVRQAPGQGLEWMGGIIATFGTVNYAQKFQGRVTITADEFTSTVNMELSSLRSDDTAVYYCARRDCSTTSCYDEVLYRLVDWGQGTLVTVSS
VL: EIVLTQSPGTLSLSPGERATLSCRASQSVNSDYLAWYKQKPGQAPRLLIYGTSSRATGIPDRFSGSGSGTDFTLTISRLEPDDFAVYYCQQYGNSPRTFGQGTKVEIK
notes: IgG; V domains only
B17: C953 (antibody, V domains shown)
VH: QVQLVQSGAEVKKPGSSVKVSCKASGGTFSSYAISWVRQAPGQGLEWMGRIIPILGIANYAQKFQGRVTITADKSTSTAYMELSSLRSEDTAVYYCARDSEYSSSWYSRGYYGMDVWGQGTTVTVSS
VL: not shown
notes: IgG; V domains only
B18: C895 (antibody, V domains shown)
VH: QVQLVQSGAEVKKPGSSVKVSCKASGGTFTSYAFSWVRQAPGQGLEWMGGIIPIFGTTNYAQKFQGRVTITADESTSTAYMELSSLRSEDTAVYYCARPEGCGSRTSCTPGAYYYGMDVWGQGTTVTVSS
VL: EIVLTQSPATLSLSPGERATLSCRASQSVGSYLAWYQQKPGQAPRLLIYDASNRATGIPARFSGSGSGTDFTLTISSLEPEDFAFYFCQQRNSWPPEYSFGQGTKLEIK
notes: IgG; V domains only
B19: C900 (antibody, V domains shown)
VH: QVQLQESGPGLVKPSGTLSLTCTVSGGSINSRNWWSWVRQPPGKGLEWIGEIFHSGSTNYNPSLESRVAISIDKSHNHFSLKLTSVTAADTAVYYCARANGILDFWGQGTLVTVSS
VL: DIQMTQSPSSLSASVGDRVTITCRASQGISNSLAWYQLKPGKAPKLLLYAASTLESGVPSRFSGSGSGTNFTLTISSLQPEDFASYCCQHYYSSPRTFGQGTKVEI
notes: IgG; V domains only
B20: C955 (antibody, V domains shown)
VH: QVQLQQWGAGLLKPSETLSLTCAVYGGTFSGYSWTWIRQPPGKGLDWIGEINHSGSTNYNPSLKSRVTISVDTSKNQFSLKLSSVTAADTAVYYCARAGFGFVITSRSGTDPLFDYWGQGTLVTVSS
VL: QSVLTQPPSVSGAPGQRVTISCTGSSSNIGAGYDVHWYQQLPGTAPKVLIYGNNNRPSGVPDRFSGSKSGTSASLAITGLQAEDEADYYCQSYDTSLSGSRVFGGGTKLTVL
notes: IgG; V domains only
B21: C876 (antibody, V domains shown)
VH: EVQLVESGGGLIQPGGSLRLSCAASEFVISRNYMSWVRQAPKKGLEWVSVLYSGGSTFYADSVKGRFTISRDDSRNMLYLQMNSLRAEDTAVYYCVRDFGEFYFDYWGQGVLVTVSS
VL: EIVMTQSPTTLSVSPGERATLSCRASQSLSSNLAWYQQKPGQAPRLLIFGVSTRATGIPARFSGSGSGTEFTLTISSLQSEDFAVYYCQQYYSGPRTFGQGTKVEIK
notes: IgG; V domains only
B22: C897 (antibody, V domains shown)
VH: QVQLVESGGGVVQPGRSLRLSCAASGFIFSHYGMHWVRQAPGKGLEWVAVILYDGSDQYYADSVKGRFTISRDNSKNTLFLEMNSLRLEDTAVYYCAKGGGQYCSHGNCYLNYFDYWGQGALVTVSS
VL: DIQMTQSPSSLSASVGDRVTITCQASQDIRDNLNWYQQKPGKAPQLLIYDASNLQPGVPSRFSGSGSGTHFTFTISRLQPEDIATYFCQQYANLPTTFGPGTKVDIK
notes: IgG; V domains only
B23: C956 (antibody, V domains shown)
VH: EVQLVESGGGLVQPGRSLRLSCTGSEFTFGDFSMSWFRQAPGKGLEWVGFIRRKADGGTTEYAASVRGRFTISRDDSKSIAYLVMNSLKSEDTAVYYCTRAWIPTPHDYWGQGVLVTVSS
VL: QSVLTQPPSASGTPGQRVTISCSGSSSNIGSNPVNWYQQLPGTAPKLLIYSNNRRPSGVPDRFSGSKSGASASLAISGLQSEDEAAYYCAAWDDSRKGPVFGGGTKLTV
notes: IgG; V domains only
B24: C957 (antibody, V domains shown)
VH: B23 VH with G24A, E26G, G30A, S35T, K54E, S79G, V84L, V95M, T99S, V114T
VL: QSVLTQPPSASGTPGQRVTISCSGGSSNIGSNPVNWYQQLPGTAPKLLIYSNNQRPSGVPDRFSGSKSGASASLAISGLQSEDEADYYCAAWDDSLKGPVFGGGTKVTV
notes: IgG; V domains only

molecular target: T1, SARS-COV-2 RBD (SARS-COV-2, UniProt P0DTC2 319-539); test: ELISA, RBD coated
T1 construct: also called WT RBD

| Binder | EC50 |
| --- | --- |
| B1 | 3.73 ng/mL |
| B2 | 0.8 ng/mL |
| B3 | 4.58 ng/mL |
| B4 | 2.4 ng/mL |
| B5 | 3.39 ng/mL |
| B6 | 2.88 ng/mL |
| B7 | 2.23 ng/mL |
| B8 | 2.01 ng/mL |
| B9 | 9.68 ng/mL |
| B10 | 2.14 ng/mL |
| B11 | 1.62 ng/mL |
| B12 | 1.83 ng/mL |
| B13 | 4.3 ng/mL |
| B14 | 1.48 ng/mL |
| B15 | 3.36 ng/mL |
| B16 | 7.6 ng/mL |
| B17 | 4.09 ng/mL |
| B18 | 2.21 ng/mL |
| B19 | 2.54 ng/mL |
| B20 | 2.44 ng/mL |
| B21 | 3.53 ng/mL |
| B22 | 1.88 ng/mL |
| B23 | 1.58 ng/mL |
| B24 | 1.93 ng/mL |

Source: patent US20240218057A1 (ROCKEFELLER UNIVERSITY, published 2024)
